The values below come from article PMC4509486.

Assay in all cases: cross-linking; copper-phenanthroline (1 mM CuSO4/3 mM 1,10-phenanthroline) disulfide cross-linking of purified protein (1 mg/ml) in 20 mM HEPES pH 7.4, 150 mM NaCl, 1 mM TCEP, on ice 15 min; non-reducing SDS-PAGE; efficiency = dimer/(monomer + dimer)
Test [1] has as its target GB1-TM-CC1 monocysteine variant A230C (not stated (human or mouse cDNA cloned)) (UniProt Q13586).
Test [2] deals with GB1-TM-CC1 monocysteine variant G226C (not stated (human or mouse cDNA cloned)) (UniProt Q13586).
In test [3] the target is GB1-TM-CC1 monocysteine variant I222C (not stated (human or mouse cDNA cloned)) (UniProt Q13586).

As for “GB1-TM-CC1 monocysteine variant A230C (from UniProt Q13586 209-310) (domain or fragment)”, the disulfide cross-linking efficiency in test [1] was above 70%.

Take “GB1-TM-CC1 monocysteine variant G226C (from UniProt Q13586 209-310) (domain or fragment)”: the disulfide cross-linking efficiency in test [2] was above 70%.

Turning to “GB1-TM-CC1 monocysteine variant I222C (from UniProt Q13586 209-310) (domain or fragment)”, the disulfide cross-linking efficiency in test [3] was above 70%.
